Data taken from PMC11446229.

Target: T1, CyaY, the frataxin homolog of Escherichia coli (E. coli), P27838
T1 chain: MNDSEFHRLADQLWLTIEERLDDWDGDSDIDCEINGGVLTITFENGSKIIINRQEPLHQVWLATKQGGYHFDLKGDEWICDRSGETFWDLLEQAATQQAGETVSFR
Assay: native MS; CyaY above 35 uM in the titration of SufSE; charge states of CyaY multimers (Fig. S4)
Details: remark: other sources report otherwise

B1: CyaY, the frataxin homolog of Escherichia coli, P27838 1-106 (natural protein)
chain: MNDSEFHRLADQLWLTIEERLDDWDGDSDIDCEINGGVLTITFENGSKIIINRQEPLHQVWLATKQGGYHFDLKGDEWICDRSGETFWDLLEQAATQQAGETVSFR
  stoichiometry N: 2 to 3
